Results taken from article doi:10.1101/2021.03.25.436948.

Molecular target: Drosophila melanogaster GNPTAB homolog, luminal portion (residues 50-630) (Drosophila melanogaster)
Assay: cryo-EM structure

stoichiometry N: 2
Substance: Drosophila melanogaster GNPTAB homolog, luminal portion (residues 50-630) (domain or fragment)
